Variants at the floor of the assay were thinned out.
B1: TPR 5TU (parent)
chain: GGAUCUUCUCGAUCUAACAAAAAAGACAAAUCUGCCACAAAGCUUGAGAGCAUCUUCGGAUGCAGAGGCGGCAGCCUUCGGUGGCGCGAUAGCGCCAACGUUCUCAACUAUGACACGCAAAACGCGUGCUCCGUUGAAUGGAGUUUAUCAUG

Variants of: B1
Test: polymerase ribozyme fitness, log enrichment relative to wild type (log ratio); higher = more active; in vitro selection for triplet polymerase activity
Method in brief: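 A heterodimeric triplet polymerase ribozyme had each of its subunits mutagenized by PCR into a library, which was transcribed. One round of in vitro selection, done in triplicate, annealed each library with a biotinylated primer, its partner subunit and triplets, then incubated it frozen at −7 °C before gel excision of extended constructs, streptavidin-bead capture and RT-PCR. Fitness is the logarithm of genotype enrichment relative to wild-type enrichment, based on Illumina sequencing of inputs and outputs and inverse-variance-weighted replicate averages. A base-2 logarithm is used, and genotypes were kept only with ≥10 input reads and ≥1 read per output.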

Question: Which “polymerase ribozyme fitness (log ratio)” value does the source give for GGAUCUUCUCGAUAUAACAAAAAAGACAAAUCUGCCACAAAGCUUGAGAGCAUCUUCGAAUGCAGAGGCGGCAGCCUUCGGAGUCGCGAUAGCGCCAACGUUCUCAACUAUGACACGCAAAACGCGUGCUCCGUUGAAUGGAGUUUAUCAUG [C14A G59A U82A G84U] here?
Answer: The value was -4.06.

Question: With GGAUCUUCUCGAUAUAACAAAAAAGACAAAUCUGCCGCAAAGCUUGAGAGCAUCUUCGGAUGCAGAGGCGGCAGCCUUCGGUGGCGCGAUAGUGCCAACGUUCUCAACUAUGACACGCAAAACGCGUGCUCCGUUGAAUGGAGUUUAUCAUG [C14A A37G C93U] as the variant, how does the “polymerase ribozyme fitness (log ratio)” value read?
Answer: Its value is -4.13.

Question: With GGAUCUUCUCGAUAUAACAUAAAAGACAAAUCUGCCACAAAGCUUGAGAGCAUCUUCGGAUGCAGAGGCGGCAGCCUUCGGUGGAGCGAUAGCGCCAACGUUCUCAACGAUGACACGCAAAACGCGUGCUCCGUUGAAUGGAGUUUAUCAUG [C14A A20U C85A U109G] as the variant, how does the “polymerase ribozyme fitness (log ratio)” value read?
Answer: Its value is at most -4.2.

Question: For GGAUCUUCUCGAUAUAGCAAAAAAGACAAAACUGCCACAAAGCUUGAGAGCAUCUUCGAAUGCAGAGGCGGCAGGCUUCGGUGGCGCGAUAGCGUCAACGGUCUCAACUAUGUCACGCAAUACGCGUGCUCCGUUGAAUGGAGUUUAUCAUG [C14A A17G U31A G59A C75G C95U U101G A113U A121U], which “polymerase ribozyme fitness (log ratio)” value is on record?
Answer: The value was at most -4.2.

Question: Which “polymerase ribozyme fitness (log ratio)” value does the source give for GGAUCUUCUCGAUAUAACUACAAAGACAAAUCUGCCACAAAGCUUGAGAGCAUCUUCGGGUGCAGAGGCGGCAGCCUUCGGUGGCGCGAUAGCGCCAACGUUCUCAACUAUGACACGCAAAACGCGUGCUCCGUUGAAUGGAGUUUAUCAUG [C14A A19U A21C A60G] here?
Answer: The value was -1.8.

Question: For GGAUCUUCUCGAUAUAACAAAAAAGACAAAUCUGCCACAAAGCUUGAGAGCAUCUUCGGAUGCAGAGGCGGCAGCCUUCGGUGGCGCGAUAGCACCAACGUUCUCAACUAUGACACGCAAAACGCGUGCUCCGUUGAAUGGAGUUUAUCAUG [C14A G94A], which “polymerase ribozyme fitness (log ratio)” value is on record?
Answer: Its value is -1.67.

Question: For GGAUCUUCUCGAUAUAACAUAAAAGACAAAUCUGCCACAAAGCUUGAGAGCAUCUUCGGGUGCAGUGGCGGCAGCCUUCGGUGGCGCGAUAGGGCCAACGUUCUCAACUAUGACACGCAAAACGCGUGCUCCGUUGAAUGGAGUUUAUCAUG [C14A A20U A60G A66U C93G], which “polymerase ribozyme fitness (log ratio)” value is on record?
Answer: The value was at most -4.2.

Question: Which “polymerase ribozyme fitness (log ratio)” value does the source give for GGAUCUUCUCGAUAUAACAAAAAAGACAAAUCUGCCACGAAACUUGAGAGCAUCUUCGGAUGCAGAGGCGGCAGCCUUCGGCGGCGCCAUAGCGCCAACGUUCUCAACUAUGACACGCAAAACGCGUGCUCCGUUGAAUGGAGUUUAUCAUG [C14A A39G G42A U82C G88C] here?
Answer: The value was at most -4.2.

Question: For GGAUCUUCUCGAUAUAACAUUAAAGACAAAUCUGCCACAAAGCUUGAGAGCAUCUUCGGAUGCAGAGGCGGCAGCCUUCGGUGGCGCGAUAGCGCCAACGUGCUCAACUAUGACACGCAAAACGCGUGCUCCGUUGAAUGGAGUUUAUCAUG [C14A A20U A21U U102G], which “polymerase ribozyme fitness (log ratio)” value is on record?
Answer: Its value is at most -4.2.

Question: Which “polymerase ribozyme fitness (log ratio)” value does the source give for GGAUCUUCUCGAUAUAACAAAAAAGACAAAUCUUCCACAAAGCUUGAGAGCAUCUUCGGAUGCAGAGGCGGCACCCUUCGGUGUCGCGAUAGCGCCAACGUUCUCAACUAUGACACGCAAAACGCGUGCUCCGUUGAAUGGAAUUUAUCAUG [C14A G34U G74C G84U G143A] here?
Answer: Its value is at most -4.2.

Question: For GGAUCUUCUCGAUAUAACAAAAAAGACAAAUCUGCCACAAAGCUUGAGAGCAUCUUCGGAUGCAGAGGCGGCAGCGUUCGGUGGCGAGAUAGCGCCAACGUUCUCAACUAUGACACGCGAAACGCGUGCUCCGUUGACUGGAGUUUAACAUG [C14A C76G C87A A119G A138C U148A], which “polymerase ribozyme fitness (log ratio)” value is on record?
Answer: Its value is at most -4.2.

Question: For GGAUCUUCUCGAUAUCACAAAAAAGACAAAUCUGCCACAAAGCUUGAGAGCAUCUGGGGAUGCAGAGGCGGCAGCCUUCGGUGGCGCGAUCGCGCCAACGUUCUCAACUAUGACACGCAAAACGCGUGCUCCGUUUAAUGGAGUUUAUCAUG [C14A A16C U56G C57G A91C G136U], which “polymerase ribozyme fitness (log ratio)” value is on record?
Answer: The value was at most -4.2.

Question: For GGAUCUUCUCGAUAUAACAAAAAAGACAAAUCUGCCACAAAGCUUGAGAGCAUCUUCGGAUGCAGAGGCGGCAGCCUUCGGUGGCGCGAUAGCGCCAACGUUCUCAACUAUGACAGGCAAAACGCGUGCUCCGUUGAAUGGAGUUUAUCAUG [C14A C116G], which “polymerase ribozyme fitness (log ratio)” value is on record?
Answer: Its value is -0.826.

Question: Which “polymerase ribozyme fitness (log ratio)” value does the source give for GGAUCUUCUCGAUAUAACAAAAAAGACAAAUCUGCCACAAAGCUUGAGAGCAUCUUCUGAUGCAGAGGCGGCAGCCUUCGGUGGCGCGAUAGCGCCAACGUUCUCAACUAUGACACGCAAAACGCGUGCUCCGUUGAAUGGAGUUUAUCAUG [C14A G58U] here?
Answer: Its value is -1.88.

Question: With GGAUCUUCUCGAUAUAACAAAAAAGACAAAUCUGCCACAAAGCUUGAGAGCAUCUUCCGAUGCAGAGGCGGCAGCCUUCGGUGGCGCGAUAGCGCCAACGUUCUCAACUAUGACACGCAAAACGCGUGCUCCGUUGAAUGGAGUUUAUCAUG [C14A G58C] as the variant, how does the “polymerase ribozyme fitness (log ratio)” value read?
Answer: Its value is -1.28.

Question: With GGAUCUUCUCGAUAUAACAAAAAAGACAAAUCUGCCACAAAGCUUGAGAGCAUCUUCGGAUGCAGAGGGGGCAGACUUCGGUGGCGCGAUAUCGCCAACGUUCUCAACUAUGACACGCAAAACGCGUGCUCCGUUGAAUUGAGUUUAUCAUG [C14A C69G C75A G92U G140U] as the variant, how does the “polymerase ribozyme fitness (log ratio)” value read?
Answer: The value was at most -4.2.

Question: With GGAUCUUCUCGAUAUAACAAAAAAGACAAAUCUGCCACAUAGCUUGAGAGCAUCUUCGGAUGCAGAGGCGGCAGCUUGCGGUGACGCGAUAGCGCCAACGUUGUCAACUAUGACACGCAAAACGCGUACUCCGUUGAAUGCAGUUUAUCAUG [C14A A40U C76U U78G G84A C103G G128A G141C] as the variant, how does the “polymerase ribozyme fitness (log ratio)” value read?
Answer: The value was at most -4.2.

Question: For GGAUCUUCUCGAUAUAACAAAAAAGACAAAUCUACCACACAGCUUGAGAGCAUCGUCGGAUGCAGAGGCGGCAGCCUUCGGUGGCGGGAUAGCGCCAACGUUCUCAACUAUGAGACUCAACACGCGUGCUCCGUUGAAAGGAGUUUAUCAUG [C14A G34A A40C U55G C87G C114G G117U A121C U139A], which “polymerase ribozyme fitness (log ratio)” value is on record?
Answer: Its value is at most -4.2.

Question: For GGAUCUUCUCGAUAUAACAAAAAAGACAAAUCUGCCACAAAGCUUGAGAGCAUCUUCGGAUGCAGAGUCGGCAGCAUUCGGUGGCGCGAUAGCGCCAAUAUUCUCAACUAUGACACGCAAAACGCGUGCUCCGUUGAAUGGAGUUUAUCAUG [C14A G68U C76A C99U G100A], which “polymerase ribozyme fitness (log ratio)” value is on record?
Answer: The value was at most -4.2.
